± gives the uncertainty stated by the source.
Test: self-splicing fitness, log relative to wild type (ln ratio); higher = more splicing; Tetrahymena group I intron in knt gene, E. coli kanamycin selection, DiMSum; sequences stand for … in CUCUCU…GGAGGGAAAAGUUAUCAGGCAUGCACCUGGUAGCUAGUCUUUAAACCAAUAGAUUGCAUCGGUUUAAAAGGCAAGACCGUCAAAUUGCGGGAAAGGGGUCAACAGCCGUUCAGUACCAAGUCUCAGGGGAAACUUUGAGAUGGCCUUGCAAAGGGUAUGGUAAUAAGCUGACGGACAUGGUCCUAACCACGCAGCCAAGUCCUAAGUCAACAGAUCUUCUGUUGAUAUGGAUGCAGUUCACAGACUAAAUGUCGGUCGGGGAAGAUGUAUUCUUCUCAUAAGAUAUAGUCGGACCUCUCCUUAAUGGGAGCUAGCGGAUGAAGUGAUGCAACACUGGAGCCGCUGGGAACUAAUUUGUAUGCGAAAGUAUAUUGAUUAGUUUUGGAGUACUCGUGGUCG
Summary of the method: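 Library with all eight P1ex-region intron nucleotides randomised, intron inside the knt kanamycin-resistance gene on pET-22b(+), in E. coli BL21(DE3). Cells grew overnight at 37°C or 30°C on LB agar with or without 25 μg/mL kanamycin (plus 100 μg/mL carbenicillin, 50 μM IPTG, 0.2% rhamnose), in six replicate transformations. Pooled colonies were amplicon-sequenced on Illumina HiSeq 2500. DiMSum fitness is the error-weighted combination of wild-type-normalised replicate fold changes, kanamycin versus none.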

Sequence | self-splicing fitness (ln) (30 °C) | self-splicing fitness (ln) (37 °C)
ACCUAGCAAUAUUACGGGGU | -3.47 ± 0.16 | -2.61 ± 0.17
AUCAAGCAAUAUUACGCUUA | -1.75 ± 0.1 | -0.843 ± 0.1
GUUCAGCAAUAUUACGAAUA | -1.01 ± 0.12 | -0.181 ± 0.1
CCACAGCAAUAUUACGAAAA | -3.8 ± 0.27 | -2.58 ± 0.22
CAAUAGCAAUAUUACGAAUC | -2.66 ± 0.38 | -0.0469 ± 0.27
CGCAAGCAAUAUUACGACGG | 0.00768 ± 0.061 | 0.452 ± 0.08
GAUUAGCAAUAUUACGUUUG | -2.64 ± 0.15 | -0.801 ± 0.16
AAGUAGCAAUAUUACGGCAU | -0.18 ± 0.094 | 0.382 ± 0.12
AUCGAGCAAUAUUACGUGUA | -3.46 ± 0.33 | -2.11 ± 0.18
CUUCAGCAAUAUUACGUCUG | -2.73 ± 0.12 | -1.48 ± 0.16
UGGCAGCAAUAUUACGGGUA | -0.841 ± 0.11 | 0.0742 ± 0.11
AUCCAGCAAUAUUACGGUCU | -0.68 ± 0.053 | -0.109 ± 0.074
UGAUAGCAAUAUUACGGGAA | -2.65 ± 0.2 | -2.44 ± 0.21
CAGUAGCAAUAUUACGGCAA | -3.53 ± 0.39 | -1.86 ± 0.27
AACGAGCAAUAUUACGUAAU | -3.78 ± 0.15 | -1.75 ± 0.12
CGGAAGCAAUAUUACGGUUU | -4.42 ± 0.36 | -3.88 ± 0.31
AUCAAGCAAUAUUACGUGUU | -3.23 ± 0.11 | -1.58 ± 0.097
GGGGAGCAAUAUUACGCUAU | -3.31 ± 0.36 | -1.88 ± 0.38
UCGUAGCAAUAUUACGAUUA | -2 ± 0.3 | -0.78 ± 0.17
CACUAGCAAUAUUACGAAUU | -2.88 ± 0.19 | -2.77 ± 0.23
AGUCAGCAAUAUUACGGUUC | -2.98 ± 0.11 | -1.51 ± 0.11
AAGAAGCAAUAUUACGACAU | -0.0917 ± 0.012 | -0.0361 ± 0.032
UACGAGCAAUAUUACGUAUU | -3.45 ± 0.25 | -2.47 ± 0.41
UUAUAGCAAUAUUACGAUGG | -1.24 ± 0.1 | -0.128 ± 0.14
UGUAAGCAAUAUUACGCUCU | 0.793 ± 0.47 | -0.974 ± 0.45
AUCUAGCAAUAUUACGCCGU | -0.173 ± 0.089 | -0.324 ± 0.1

Sequence | self-splicing fitness (ln) (30 °C) | self-splicing fitness (ln) (37 °C)
GCGCAGCAAUAUUACGUAGG | -0.838 ± 0.061 | -0.551 ± 0.086
UGCAAGCAAUAUUACGCUCA | -0.11 ± 0.16 | 0.138 ± 0.2
GAAGAGCAAUAUUACGGUCG | -3.24 ± 0.13 | -1.61 ± 0.15
CGCAAGCAAUAUUACGAAGA | -2.75 ± 0.21 | -1.73 ± 0.17
UUGAAGCAAUAUUACGCCCA | 0.429 ± 0.12 | 0.296 ± 0.16
GGCGAGCAAUAUUACGAGGC | -3.5 ± 0.23 | -3.02 ± 0.27
UCCAAGCAAUAUUACGUACC | -2.68 ± 0.19 | -2.18 ± 0.26
GUAUAGCAAUAUUACGUAGC | -3.22 ± 0.19 | -1.46 ± 0.14
GGUUAGCAAUAUUACGGUGU | -2.18 ± 0.11 | -0.973 ± 0.15
CUUGAGCAAUAUUACGUUCU | -2.75 ± 0.41 | -3.71 ± 0.42
CCUAAGCAAUAUUACGCUCA | -3.32 ± 0.27 | -3.18 ± 0.4
CUCGAGCAAUAUUACGGAGC | -3.66 ± 0.26 | -3.22 ± 0.3
CGGAAGCAAUAUUACGGGAA | -3.16 ± 0.46 | -2.3 ± 0.28
AAAGAGCAAUAUUACGGGGU | -2.63 ± 0.21 | -2.18 ± 0.24
GUCGAGCAAUAUUACGAGAU | – | -2.45 ± 0.39
CUAGAGCAAUAUUACGUGCG | -0.299 ± 0.083 | -0.255 ± 0.098
GCACAGCAAUAUUACGUUUU | -1.14 ± 0.046 | -0.268 ± 0.065
UGACAGCAAUAUUACGGCUG | -2.28 ± 0.18 | -0.623 ± 0.15
AUGGAGCAAUAUUACGCCGG | -2.78 ± 0.46 | –
GGGCAGCAAUAUUACGUACG | -0.697 ± 0.12 | -0.0767 ± 0.14
UCCUAGCAAUAUUACGCGGA | -3.3 ± 0.26 | -2.51 ± 0.25
AGAGAGCAAUAUUACGCCUA | -2.6 ± 0.48 | -1.08 ± 0.33
CUCAAGCAAUAUUACGUUUU | -3.35 ± 0.14 | -2.34 ± 0.18
GACCAGCAAUAUUACGACGC | 0.184 ± 0.074 | -0.35 ± 0.085
GUAGAGCAAUAUUACGACGA | -1.85 ± 0.15 | -0.21 ± 0.16
AAUUAGCAAUAUUACGGGAU | -2.28 ± 0.22 | -1.37 ± 0.2

Sequence | self-splicing fitness (ln) (30 °C) | self-splicing fitness (ln) (37 °C)
GUACAGCAAUAUUACGGUGC | -3.12 ± 0.15 | -2.22 ± 0.18
AUAGAGCAAUAUUACGACUU | -0.0326 ± 0.11 | 0.17 ± 0.11
GCCCAGCAAUAUUACGCCUA | -1.9 ± 0.18 | -0.261 ± 0.12
GAUUAGCAAUAUUACGCUAA | -3.24 ± 0.39 | -1.89 ± 0.35
AGCGAGCAAUAUUACGAGCA | -0.722 ± 0.11 | -0.526 ± 0.11
AGCGAGCAAUAUUACGGGCC | -3.58 ± 0.47 | -2.88 ± 0.43
UCCCAGCAAUAUUACGAUGA | -0.0138 ± 0.055 | 0.23 ± 0.069
GAAAAGCAAUAUUACGAGUA | -3.92 ± 0.42 | -2.44 ± 0.2
UAUGAGCAAUAUUACGAAAG | -2.55 ± 0.39 | –
ACCCAGCAAUAUUACGAUCC | -1.96 ± 0.079 | -1.17 ± 0.12
CCGGAGCAAUAUUACGCCUG | -2.36 ± 0.24 | -1.8 ± 0.24
AGGCAGCAAUAUUACGAGUC | -2.29 ± 0.14 | -2.34 ± 0.2
CUUGAGCAAUAUUACGUGGC | – | -2.41 ± 0.31
UCUGAGCAAUAUUACGAUAG | -3.28 ± 0.18 | -1.93 ± 0.18
CGCUAGCAAUAUUACGAAUA | -2.58 ± 0.19 | -2.57 ± 0.23
CAGAAGCAAUAUUACGUAAC | -3.85 ± 0.27 | -2.26 ± 0.32
AGGAAGCAAUAUUACGUGGA | -3.05 ± 0.19 | -1.16 ± 0.13
CCUUAGCAAUAUUACGGGGC | -3.39 ± 0.27 | -3.06 ± 0.32
UUUGAGCAAUAUUACGAAUU | -2.47 ± 0.23 | -2.01 ± 0.3
AUACAGCAAUAUUACGUAGG | -2.13 ± 0.11 | -0.536 ± 0.12
CGCGAGCAAUAUUACGGGGG | -3.45 ± 0.38 | -3.07 ± 0.32
GCAUAGCAAUAUUACGGGUG | -2.29 ± 0.13 | -1.82 ± 0.12
CGAAAGCAAUAUUACGGUGU | -2.55 ± 0.088 | -1.66 ± 0.11
CUGAAGCAAUAUUACGGAUU | -4.16 ± 0.17 | -3.01 ± 0.26

— the supplement of paper PMC7877785
